{
  "source": "patent US8357833B2",
  "about": "“Corn plants and seed enhanced for asparagine and protein” (priority 2007, dated 2013)",
  "molecules": {"B1": {"name": "Zea mays asparagine synthetase Zm AsnS2 (SEQ ID NO: 4, encoded by SEQ ID NO: 3) (Zea mays) (protein)", "chain": "MCGILAVLGCADEAKGSSKRSRVLELSRRLKHRGPDWSGLRQVGDCYLSHQRLAIIDPASGDQPLYNEDQSVVVAVNGEIYNHLDLRSRLAGAGHSFRTGSDCEVIAHLYEEHGEEFVDMLDGVFSFVLLDTRHGDRAGSSFFMAARDAIGVTPLYIGWGVDGSVWISSEMKALHDECEHFEIFPPGHLYSSNTGGFSRWYNPPWYDDDDDEEAVVTPSVPYDPLALRKAFEKAVVKRLMTDVPFGVLLSGGLDSSLVATVAVRHLARTEAARRWGTKLHSFCVGLEGSPDLKAAREVAEYLGTLHHEFHFTVQDGIDAIEDVIYHTETYDVTTIRASTPMFLMSRKIKSLGVKMVISGEGSDELFGGYLYFHKAPNKEELHRETCRKVKALHQYDCLRANKATSAWGLEARVPFLDKEFINAAMSIDPEWKMVQPDLGRIEKWVLRKAFDDEEQPFLPKHILYRQKEQFSDGVGYSWIDGLKAHATSNVTDKMLSNAKFIFPHNTPTTKEAYYYRMVFERFFPQKSAILTVPGGPSVACSTAKAIEWDAQWSGNLDPSGRAALGVHLAAYEHQHDPEHVPAAIAAGSGKKPRTIRVAPPGVAIEG", "notes": "606 aa"}, "B2": {"name": "Zea mays asparagine synthetase Zm AsnS1 (SEQ ID NO: 2, encoded by SEQ ID NO: 1) (Zea mays) (protein)", "chain": "MICDKCSLVRSFFVGRPRDITSLYKKAGSCRTMCGILAVLGVAEVSLAKRSRIIELSRRLRHRGPDWSGLHCHEDCYLAHQRLAIIDPTSGDQPLYNEDKTVVVTVNGEIYNHEELKAKLKTHEFQTGSDCEVIAHLYEEYGEEFVDMLDGMFSFVLLDTRDKSFIAARDAIGICPLYMGWGLDGSVWFSSEMKALSDDCERFITFPPGHLYSSKTGGLRRWYNPPWFSETVPSTPYNALFLREMFEKAVIKRLMTDVPFGVLLSGGLDSSLVASVASRHLNETKVDRQWGNKLHTFCIGLKGSPDLKAAREVADYLSTVHHEFHFTVQEGIDALEEVIYHIETYDVTTIRASTPMFLMSRKIKSLGVKMVISGEGSDEIFGGYLYFHKAPNKKEFHEETCRKIKALHLYDCLRANKATSAWGVEARVPFLDKSFISVAMDIDPEWKMIKRDLGRIEKWVIRNAFDDDERPYLPKHILYRQKEQFSDGVGYSWIDGLKDHASQHVSDSMMMNAGFVYPENTPTTKEGYYYRMIFEKFFPKPAARSTVPGGPSVACSTAKAVEWDASWSKNLDPSGRAALGVHDAAYEDTAGKTPASADPVSDKGLRPAIGESLGTPVASATAV"}, "B3": {"name": "Zea mays asparagine synthetase Zm AsnS3 (SEQ ID NO: 6, encoded by SEQ ID NO: 5) (Zea mays) (protein)", "chain": "MCGILAVLGCSDWSQAKRARILACSRRLKHRGPDWSGLYQHEGNFLAQQRLAVVSPLSGDQPLFNEDRTVVVVANGEIYNHKNVRKQFTGTHNFSTGSDCEVIMPLYEKYGENFVDMLDGVFAFVLYDTRDRTYVAARDAIGVNPLYIGWGSDGSVWIASEMKALNEDCVRFEIFPPGHLYSSAGGGFRRWYTPHWFQEQVPRTPYQPLVLREAFEKAVIKRLMTDVPFGVLLSGGLDSSLVASVTKRHLVETEAAEKFGTELHSFVVGLEGSPDLKAAREVADYLGTIHHEFHFTVQDGIDAIEEVIYHDETYDVTTIRASTPMFLMARKIKSLGVKMVLSGEGSDELLGGYLYFHFAPNKEEFHRETCRKVKALHQYDCLRANKATSAWGLEVRVPFLDKEFINVAMGMDPEWKMYDKNLGRIEKWVMRKAFDDDEHPYLPKHILYRQKEQFSDGVGYNWIDGLKSFTEQQVTDEMMNNAAQMFPYNTPVNKEAYYYRMIFERLFPQDSARETVPWGPSIACSTPAAIEWVEQWKASNDPSGRFISSHDSAATDHTGGKPAVANGGGHGAANGTVNGKDVAVAIAV", "notes": "588 aa"}},
  "key": {"[1]": {"target": "T1, Zea mays asparagine synthetase Zm AsnS2 (SEQ ID NO: 4, encoded by SEQ ID NO: 3) (Zea mays, UniProt B5U8J7)", "T1 construct": "606 aa", "T1 sequence (B5U8J7 1-606)": "B1 chain", "assay": "Kinetics of recombinant his-tagged, refolded maize asparagine synthetase AsnS2 (substrate titration, asparagine by HPLC)", "assay_type": "biochemical", "conditions": "AsnS2 versus the other maize AsnS enzymes", "protocol": "The effect of expression of asparagine synthetase genes on asparagine synthetase activity was measured in transgenic events of pMON79706 and pMON92870. Frozen, ground leaf tissue was aliquoted (200-400 mg) into wells from a precooled 96 deep-well plate. Protein was extracted in Buffer A (100 mM Hepes-OH, pH 8.0, 0.1 mM EDTA, 10 mM MgCl2, 2 mM aspartate, 0.5 mM DTT, 67 mM mercaptoethanol, 20% (v/v) glycerol, 0.1 mM ATP, 1% (v/v) P9599 (Sigma Company), 25 mM KCl). A small amount of sand was added to each well. Buffer A was then added to the leaf tissue in the wells at a ratio of 4:1 (buffer:tissue). The plates were then agitated in a paint shaker for 2 min. to mix the sample and then centrifuged at 5000×g for 10 minutes. The supernatant (100-200 μL) was desalted in a 96-well macro spin plate (SNS S025L, The Nest Group Inc., Southboro, Mass.) equilibrated in buffer A. The supernatant was then either assayed immediately or frozen in liquid nitrogen and maintained at −80° C. until used. […] The mixture was then filtered to remove precipitate and asparagine was measured by HPLC. […]"}, "[2]": {"target": "T2, Zea mays asparagine synthetase Zm AsnS4 (SEQ ID NO: 51, encoded by SEQ ID NO: 50) (Zea mays, UniProt B5U8J9)", "T2 construct": "588 aa", "T2 sequence (B5U8J9 1-588)": "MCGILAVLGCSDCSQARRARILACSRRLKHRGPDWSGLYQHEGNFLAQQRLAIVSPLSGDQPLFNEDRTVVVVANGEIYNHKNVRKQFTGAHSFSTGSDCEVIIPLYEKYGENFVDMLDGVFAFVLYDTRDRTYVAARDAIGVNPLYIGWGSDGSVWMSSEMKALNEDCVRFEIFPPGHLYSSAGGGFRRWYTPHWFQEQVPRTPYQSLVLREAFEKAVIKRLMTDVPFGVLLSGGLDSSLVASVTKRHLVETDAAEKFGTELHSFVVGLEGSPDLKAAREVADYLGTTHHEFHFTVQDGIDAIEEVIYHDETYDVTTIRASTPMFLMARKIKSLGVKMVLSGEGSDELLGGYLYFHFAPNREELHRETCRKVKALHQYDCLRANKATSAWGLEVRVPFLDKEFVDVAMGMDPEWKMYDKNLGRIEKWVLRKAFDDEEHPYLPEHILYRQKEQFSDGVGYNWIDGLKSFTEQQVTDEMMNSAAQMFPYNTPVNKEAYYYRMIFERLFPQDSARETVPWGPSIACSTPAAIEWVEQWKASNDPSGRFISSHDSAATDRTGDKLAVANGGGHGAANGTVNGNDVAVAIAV", "assay": "Kinetics of recombinant his-tagged, refolded maize asparagine synthetase AsnS4 (substrate titration, asparagine by HPLC)", "assay_type": "biochemical", "protocol": "The effect of expression of asparagine synthetase genes on asparagine synthetase activity was measured in transgenic events of pMON79706 and pMON92870. Frozen, ground leaf tissue was aliquoted (200-400 mg) into wells from a precooled 96 deep-well plate. Protein was extracted in Buffer A (100 mM Hepes-OH, pH 8.0, 0.1 mM EDTA, 10 mM MgCl2, 2 mM aspartate, 0.5 mM DTT, 67 mM mercaptoethanol, 20% (v/v) glycerol, 0.1 mM ATP, 1% (v/v) P9599 (Sigma Company), 25 mM KCl). A small amount of sand was added to each well. Buffer A was then added to the leaf tissue in the wells at a ratio of 4:1 (buffer:tissue). The plates were then agitated in a paint shaker for 2 min. to mix the sample and then centrifuged at 5000×g for 10 minutes. The supernatant (100-200 μL) was desalted in a 96-well macro spin plate (SNS S025L, The Nest Group Inc., Southboro, Mass.) equilibrated in buffer A. The supernatant was then either assayed immediately or frozen in liquid nitrogen and maintained at −80° C. until used. To assay asparagine synthetase activity, desalted protein extracts (10-50 μL) were added to wells containing 100 μL assay solution (100 mM Hepes, pH 8.0, 10 mM MgCl2, 2 mM aspartate, 5 mM DTT, 10 mM ATP, 1 mM amino(oxy)acetic acid (aspartate amino transferase inhibitor), 1 mM aspartic semialdehyde (asparaginase inhibitor). To start the reaction, glutamine (final concentration of 2 mM for standard assay) was added to the solution, which was then mixed. The assay mixture was then incubated for 1 to 2 hours. The reaction was then stopped by the addition of an equal volume of 20% (w/v) trichloroacetic acid. The mixture was then filtered to remove precipitate and asparagine was measured by HPLC. Sample size was increased from 0.5 μL to 2.5 μL for HPLC, excitation wavelength was reduced from 340 nm to 235 nm, and fluorimeter gain was increased from 10 to 13. […]"}, "[3]": {"substrate": "NC(=O)CC[C@H](N)C(=O)O", "assay": "Kinetics of recombinant his-tagged, refolded maize asparagine synthetase AsnS2 (substrate titration, asparagine by HPLC)", "assay_type": "biochemical, Zea mays", "conditions": "other: Zm AsnS2, 100 mM Hepes, pH 8.0, 10 mM MgCl2", "excerpt": "(§1) This example describes the cloning of the nucleotide sequence for AsnS1 (SEQ ID NO: 1), AsnS2 (SEQ ID NO: 3), AsnS3 (SEQ ID NO: 5) and AsnS4 (SEQ ID NO: 50) into E. coli expression vectors, as well as the expression, purification and kinetics of the recombinant forms of the four AsnS isoforms.\n(§2) These vectors are expected to produce recombinant proteins with C-terminal histidine tags.\n(§3) The E. coli expression vectors described in the previous paragraph were used to transform Rosetta DE5™ E. coli cells (Novagen). Transformed cells were transferred from solid LB media plates and grown in liquid LB media containing standard concentrations of kanomycin (50 μM) and chloramphenicol (25 μM) at 37° C. An overnight culture was used to inoculate a 25 mL culture, which was grown at 37° C. until mid log phase (OD600=0.40.6). Cells were then transferred to 20° C. for 30 min after which IPTG was added to a final concentration of 0.5 mM. The cells were then grown at 20° C. for 12 hours and cell pellets were harvested by centrifugation.\n(§4) The protein was recovered from the insoluble fraction while bound to a nickel column. Buffers used for the purification of recombinant AsnS were: […]"}, "[4]": {"substrate": "N[C@@H](CC(=O)O)C(=O)O", "assay": "Kinetics of recombinant his-tagged, refolded maize asparagine synthetase AsnS2 (substrate titration, asparagine by HPLC)", "assay_type": "biochemical, Zea mays", "conditions": "other: Zm AsnS2, 100 mM Hepes, pH 8.0, 10 mM MgCl2", "excerpt": "as §1, §2, §3, §4"}, "[5]": {"substrate": "Nc1ncnc2c1ncn2[C@@H]1O[C@H](COP(=O)(O)OP(=O)(O)OP(=O)(O)O)[C@@H](O)[C@H]1O", "assay": "Kinetics of recombinant his-tagged, refolded maize asparagine synthetase AsnS2 (substrate titration, asparagine by HPLC)", "assay_type": "biochemical, Zea mays", "conditions": "other: Zm AsnS2, 100 mM Hepes, pH 8.0, 10 mM MgCl2", "excerpt": "as §1, §2, §3, §4"}, "[6]": {"substrate": "NC(=O)CC[C@H](N)C(=O)O", "assay": "Kinetics of recombinant his-tagged, refolded maize asparagine synthetase AsnS1 (substrate titration, asparagine by HPLC)", "assay_type": "biochemical, Zea mays", "conditions": "other: Zm AsnS1, 100 mM Hepes, pH 8.0, 10 mM MgCl2", "excerpt": "as §1, §2, §3, §4"}, "[7]": {"substrate": "N[C@@H](CC(=O)O)C(=O)O", "assay": "Kinetics of recombinant his-tagged, refolded maize asparagine synthetase AsnS1 (substrate titration, asparagine by HPLC)", "assay_type": "biochemical, Zea mays", "conditions": "other: Zm AsnS1, 100 mM Hepes, pH 8.0, 10 mM MgCl2", "excerpt": "as §1, §2, §3, §4"}, "[8]": {"substrate": "Nc1ncnc2c1ncn2[C@@H]1O[C@H](COP(=O)(O)OP(=O)(O)OP(=O)(O)O)[C@@H](O)[C@H]1O", "assay": "Kinetics of recombinant his-tagged, refolded maize asparagine synthetase AsnS1 (substrate titration, asparagine by HPLC)", "assay_type": "biochemical, Zea mays", "conditions": "other: Zm AsnS1, 100 mM Hepes, pH 8.0, 10 mM MgCl2", "excerpt": "as §1, §2, §3, §4"}, "[9]": {"substrate": "NC(=O)CC[C@H](N)C(=O)O", "assay": "Kinetics of recombinant his-tagged, refolded maize asparagine synthetase AsnS3 (substrate titration, asparagine by HPLC)", "assay_type": "biochemical, Zea mays", "conditions": "other: Zm AsnS3, 100 mM Hepes, pH 8.0, 10 mM MgCl2", "excerpt": "as §1, §2, §3, §4"}, "[10]": {"substrate": "N[C@@H](CC(=O)O)C(=O)O", "assay": "Kinetics of recombinant his-tagged, refolded maize asparagine synthetase AsnS3 (substrate titration, asparagine by HPLC)", "assay_type": "biochemical, Zea mays", "conditions": "other: Zm AsnS3, 100 mM Hepes, pH 8.0, 10 mM MgCl2", "excerpt": "as §1, §2, §3, §4"}, "[11]": {"substrate": "Nc1ncnc2c1ncn2[C@@H]1O[C@H](COP(=O)(O)OP(=O)(O)OP(=O)(O)O)[C@@H](O)[C@H]1O", "assay": "Kinetics of recombinant his-tagged, refolded maize asparagine synthetase AsnS3 (substrate titration, asparagine by HPLC)", "assay_type": "biochemical, Zea mays", "conditions": "other: Zm AsnS3, 100 mM Hepes, pH 8.0, 10 mM MgCl2", "excerpt": "as §1, §2, §3, §4"}},
  "note": "Like-named read-outs stand apart in the source and are kept apart here.",
  "data": [
    {"molecule": "NC(=O)CC[C@H](N)C(=O)O", "note": "[Gln, glutamine]", "values": [
      {"measurement": "Km (Gln) for AsnS2 compared with the other enzymes", "setting": "[1]", "result": "several fold lower than the other enzymes"},
      {"measurement": "Km", "setting": "[2]; 100 mM Hepes, pH 8.0, 10 mM MgCl2, read-out: Km(Gln)", "result": 233, "unit": "µM"}
    ]},
    {"molecule": "Nc1ncnc2c1ncn2[C@@H]1O[C@H](COP(=O)(O)OP(=O)(O)OP(=O)(O)O)[C@@H](O)[C@H]1O", "note": "[ATP]", "values": [
      {"measurement": "Km", "setting": "[2]; read-out: Km(ATP), 100 mM Hepes, pH 8.0, 10 mM MgCl2", "result": 128, "unit": "µM"}
    ]},
    {"molecule": "B1", "values": [
      {"measurement": "Km", "setting": "[3]", "result": 110, "unit": "µM"},
      {"measurement": "Km", "setting": "[4]", "result": 910, "unit": "µM"},
      {"measurement": "Km", "setting": "[5]", "result": 125, "unit": "µM"}
    ]},
    {"molecule": "B2", "values": [
      {"measurement": "Km", "setting": "[6]", "result": 543, "unit": "µM"},
      {"measurement": "Km", "setting": "[7]", "result": 980, "unit": "µM"},
      {"measurement": "Km", "setting": "[8]", "result": 110, "unit": "µM"}
    ]},
    {"molecule": "B3", "values": [
      {"measurement": "Km", "setting": "[9]", "result": 423, "unit": "µM"},
      {"measurement": "Km", "setting": "[10]", "result": 1200, "unit": "µM"},
      {"measurement": "Km", "setting": "[11]", "result": 97, "unit": "µM"}
    ]}
  ]
}
